# Measurements: EP1763578B1, “TANNASE” (priority 2004, dated 2006)
# T1: Arxula adeninivorans LS3 Tannase II (Atan2p), SEQ ID NO: 4 (Blastobotrys adeninivorans, UniProt Q5GMI6)
# T1 sequence (Q5GMI6 29-448): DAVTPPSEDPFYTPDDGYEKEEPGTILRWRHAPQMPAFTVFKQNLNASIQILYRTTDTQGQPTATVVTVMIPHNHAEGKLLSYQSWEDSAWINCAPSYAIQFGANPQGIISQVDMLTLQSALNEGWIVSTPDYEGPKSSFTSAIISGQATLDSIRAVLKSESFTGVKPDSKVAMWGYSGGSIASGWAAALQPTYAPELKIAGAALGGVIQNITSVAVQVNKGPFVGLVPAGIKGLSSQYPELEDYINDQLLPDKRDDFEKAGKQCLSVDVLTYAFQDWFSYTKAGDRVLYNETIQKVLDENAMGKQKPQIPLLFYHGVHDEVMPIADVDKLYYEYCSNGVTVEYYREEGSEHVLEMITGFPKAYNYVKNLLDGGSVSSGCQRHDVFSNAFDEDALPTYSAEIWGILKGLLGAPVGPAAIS
# B1: Tannase II (Atan2p nativ, native Lipase) secreted by A. adeninivorans LS3, SEQ ID NO: 4 (Blastobotrys adeninivorans) (protein)
# chain: T1 sequence (Q5GMI6 29-448)
# B2: Tannase II (Atan2p rekombinant, rekombinante Lipase) secreted by A. adeninivorans G1211/pAL-ALEU2m-ATAN2, SEQ ID NO: 4 (Blastobotrys adeninivorans) (protein)
# chain: T1 sequence (Q5GMI6 29-448)
# Columns and labels:
# [1] = tested on: Arxula adeninivorans LS3 Tannase I (Atan1p), SEQ ID NO: 3; test: Tannase assay with rhodanine, KM determination with tannin; assay type: biochemical; details: tannin solution 0,05-0,75 mg/ml, 15 min at 30°C; Lineweaver-Burk plot; read-out: KM-Wert (Tannin)
# Description: (§1) Der Nachweis der Tannase mit Hilfe des Rhodanins, wurde nach einer Methode von Sharma et al. (Sharma S, Bhat TK, Dawra RK (2000) A spectrophotometric method for assay of tannase using Rhodanine. Anal. Biochem. 279: 85-89, 2000) durchgeführt.
# (§2) Als Test-Kontrolle wurden 450 µl Puffer und 50 µl eingeengter Kulturüberstand zusammenpipettiert. Als Blank-Kontrolle wurden 250 µl der Substratlösung und 250 µl Puffer zusammengegeben. Diese drei verschiedenen Ansätze wurden anschließend für 5 Min bei 30°C inkubiert. […] Nach anschließender Inkubation für 5 Min bei 30°C wurden weitere 200 µl 0,5 M KOH zugegeben. Nach wiederholter Inkubation bei 30°C für 5 Min wird die Absorbtion der verschiedenen Ansätze bei 520 nm im Spektrophotometer (UV160-A/Shimadzu) gegen Wasser gemessen. Die Absorption kann nach folgender Formel berechnet werden: ΔA520nm = (ATest-ABlank)-(AKontrolle-ABlank) [formula]
# (§3) Mit Hilfe einer Eichkurve wurde dann die entstandene Gallatmenge ermittelt. Einheiten/Enzym = ((μmol gebildetes Gallat/min)*(Vf))/((0, 05)) [formula] Vf = Verdünnungsfaktor 0,05 = eingesetztes Probevolumen (in Milliliter) Eine Einheit ist definiert als µmol gebildetes Gallat pro Minute.
# Zur Bestimmung des KM-Wertes wurde zu je 50 µl Tannase 250 µl Tanninlösung in Konzentrationen von 0,05 mg/ml bis 0,75 mg/ml zugegeben, alles 15 Min bei 30°C inkubiert und die Tannaseaktivität wie beschrieben ermittelt. […]
# [2] = molecular target: T1, Arxula adeninivorans LS3 Tannase II (Atan2p), SEQ ID NO: 4; test: as above; assay type: biochemical; details: tannin solution 0,05-0,75 mg/ml, 15 min at 30°C; Lineweaver-Burk plot; read-out: KM-Wert (Tannin)
# Description: as §1, §2, §3
# Zur Bestimmung des KM-Wertes wurde zu je 50µl Tannase-Probe 250µl Tanninlösung in Konzentrationen von 0,05 mg/ml bis 0,75 mg/ml zugegeben, alles 15 Min bei 30°C inkubiert und die Tannaseaktivität gemessen. […]
# [3] = substrate: CCCCCCCCCC(=O)Oc1ccc([N+](=O)[O-])cc1; test: Lipase assay with p-nitrophenyl ester, native enzyme; assay type: biochemical, Arxula adeninivorans LS3; details: other: native lipase; pH 7.5; 30.0 °C
# Description: (§4) Für diese Bestimmung wurde eine frische Stammlösung (3mM […] in 10 ml Propanol durch 10 Min vortexen lösen) angesetzt. Für den Messansatz wurden 850 µl 0,05 M Na-Phosphat-Puffer pH 7,5 und 100 µl der Stammlösung gemischt und anschließend 50 µl Probelösung zugegeben. Als Kontrolle wurden 900 µl Puffer und 100 µl Stammlösung zusammengegeben. Beide Ansätze wurden für 5-10 Min bei 30°C inkubiert und anschließend 1 ml Aceton zum Abstoppen der Reaktion zugegeben. Danach wurde die Absorption bei 410 nm im Spektrometer (UV160-A/Shimadzu) gegen Wasser gemessen: Die Enzymaktivität kann dann nach folgender Formel berechnet werden: Einheiten/ml Enzym = ((ΔA410nm/min Test-ΔA410nm/min Blank)*(Vf))/((14, 800)*(0, 05)) [formula] Vf = Verdünnungsfaktor 14800 I mol^-1 cm^-1= Extinktionskoeffizient von p-Nitrophenol bei 410nm (Quinn et al. 1982) 0,05 = eingesetztes Probevolumen (in Milliliter) Eine Einheit ist definiert als µmol gebildetes p-Nitrophenol pro Minute.
# (§5) Da Atan2p eine sehr hohe Homologie zu Lipasen aufweist, wurde A. adeninivorans G1211/pAL-ALEU2m-ATAN2 parallel auf sekretorische Lipase-Aktivität mit p-Nitrophenyl-Caprate geprüft. Dazu erfolgte eine Anzucht in HMM + 2% Glukose bzw. HMM + 2% Xylitol, Bedingungen unter denen das native ATAN2-Gen nicht exprimiert wird, d. h. auch kein natives sekretorisches Atan2p auftritt. […]
# [4] = substrate: CCCCCCCCCC(=O)Oc1ccc([N+](=O)[O-])cc1; test: Lipase assay with p-nitrophenyl ester, recombinant enzyme; assay type: biochemical, Arxula adeninivorans; details: other: recombinant lipase; pH 7.5; 30.0 °C
# Description: as §4, §5
molecule,measurement,setting,value
Tannin,Km,[1],150 µM
same,Km,[2],1.1 mM
B1,Km,[3],400 µM
same,Vmax,[3],"0,043 µmol x min^-1"
B2,Km,[4],710 µM
same,Vmax,[4],"0,036 µmol x min^-1"
